Article PMC7615804, “Molecular mechanism of dynein-dynactin complex assembly by LIS1” (Science (New York, N.Y.), 2024)
Where a chain is given by its changes, count along the chain named. Names may count otherwise.

T1: mouse JIP3^185-505 (JIP3 residues 186-505) (mouse, UniProt Q9ESN9-5 186-505)
T1 construct: 2CT vector; also called JIP3 fragment containing the Spindly motif and LZII; JIP3 186-505; source: SoluBL21 E. coli, purified (Ni-NTA, TEV, Strep-Tactin, SEC); not shown: His6, N-terminal, cleaved; MBP, N-terminal, cleaved
T1 sequence (looked up): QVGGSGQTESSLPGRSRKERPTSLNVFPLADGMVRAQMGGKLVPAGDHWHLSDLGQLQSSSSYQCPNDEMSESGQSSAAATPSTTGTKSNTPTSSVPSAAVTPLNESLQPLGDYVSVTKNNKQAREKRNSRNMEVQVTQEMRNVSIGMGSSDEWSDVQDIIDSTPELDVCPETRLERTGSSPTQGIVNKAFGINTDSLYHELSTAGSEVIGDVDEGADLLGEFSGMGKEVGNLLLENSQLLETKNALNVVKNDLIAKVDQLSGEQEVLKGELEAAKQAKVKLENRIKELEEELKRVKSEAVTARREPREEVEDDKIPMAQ

T2: mouse JIP3 186-505_L383A/E386A (mouse, UniProt Q9ESN9-5 186-505, L383A | E386A)
T2 construct: JIP3, mouse cDNA, isoform 3a, UniProt Q9ESN9-5, residues 186-505 with L383A and E386A; also called Spindly motif mutant (L383A/E386A); source: SoluBL21 E. coli, purified (Ni-NTA, TEV, Strep-Tactin, SEC); not shown: His6, N-terminal, cleaved; MBP, N-terminal, cleaved
T2 sequence (looked up): T1 sequence (looked up) with L198A, E201A

T3: LIS1 (full length human) (human, UniProt P43034 1-410)
T3 construct: LIS1, human, full length, UniProt P43034 (printed for the AlphaFold2 prediction); A version with an additional C-terminal SNAPf tag also exists; also called wild-type LIS1; source: Sf9, purified (IgG Sepharose, TEV, SEC); not shown: ZZ, N-terminal, cleaved
T3 sequence (looked up): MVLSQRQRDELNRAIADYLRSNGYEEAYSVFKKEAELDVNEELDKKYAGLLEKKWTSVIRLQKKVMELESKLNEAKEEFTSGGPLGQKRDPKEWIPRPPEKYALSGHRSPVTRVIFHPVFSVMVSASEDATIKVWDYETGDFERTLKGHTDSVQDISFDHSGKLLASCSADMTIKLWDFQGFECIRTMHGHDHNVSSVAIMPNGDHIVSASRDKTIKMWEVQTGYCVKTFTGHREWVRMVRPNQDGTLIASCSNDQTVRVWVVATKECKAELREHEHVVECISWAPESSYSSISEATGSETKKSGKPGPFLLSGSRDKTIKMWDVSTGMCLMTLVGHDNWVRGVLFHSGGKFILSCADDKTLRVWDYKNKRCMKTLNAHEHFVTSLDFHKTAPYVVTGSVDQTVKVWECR

B1: MBP-DIC-N (dynein intermediate chain 1-76) (domain or fragment, human, UniProt Q13409 1-76, looked up)
chain: MSDKSELKAELERKKQRLAQIREEKKRKEEERKKKETDQKKEAVAPVQEESDLEKKRREAEALLQSMGLTPESPIV
notes: dynein intermediate chain, residues 1-76; UniProt Q13409 is printed for DIC in the AlphaFold2 predictions; 2CT vector; the general protocol includes a TEV step, but this construct is named and used as MBP-DIC-N on amylose resin; also called DIC-N construct; source: SoluBL21 E. coli, purified; not shown: MBP, N-terminal, kept
B2: JIP3^1-560 (domain or fragment, human, UniProt Q9UPT6-1 1-560, looked up)
chain: MMEIQMDEGGGVVVYQDDYCSGSVMSERVSGLAGSIYREFERLIHCYDEEVVKELMPLVVNVLENLDSVLSENQEHEVELELLREDNEQLLTQYEREKALRRQAEEKFIEFEDALEQEKKELQIQVEHYEFQTRQLELKAKNYADQISRLEERESEMKKEYNALHQRHTEMIQTYVEHIERSKMQQVGGNSQTESSLPGRRKERPTSLNVFPLADGTVRAQIGGKLVPAGDHWHLSDLGQLQSSSSYQCPQDEMSESGQSSAAATPSTTGTKSNTPTSSVPSAAVTPLNESLQPLGDYGVGSKNSKRAREKRDSRNMEVQVTQEMRNVSIGMGSSDEWSDVQDIIDSTPELDMCPETRLDRTGSSPTQGIVNKAFGINTDSLYHELSTAGSEVIGDVDEGADLLGEFSVRDDFFGMGKEVGNLLLENSQLLETKNALNVVKNDLIAKVDQLSGEQEVLRGELEAAKQAKVKLENRIKELEEELKRVKSEAIIARREPKEEAEDVSSYLCTESDKIPMAQRRRFTRVEMARVLMERNQYKERLMELQEAVRWTEMIRASRE
notes: JIP3, human, UniProt Q9UPT6-1, residues 1-560, codon optimised for Sf9; The bacterial 2CT version would carry a C-terminal Strep-tag II; source: Sf9, purified (IgG Sepharose, TEV, SEC); not shown: His6, N-terminal, cleaved; ZZ, N-terminal, cleaved
B3: GCN4-WD40-SNAP (other, human)
chain: GSGSVKQLEDKVEELLSKNAHLENEVARLKKLVSGGPLGQKRDPKEWIPRPPEKYALSGHRSPVTRVIFHPVFSVMVSASEDATIKVWDYETGDFERTLKGHTDSVQDISFDHSGKLLASCSADMTIKLWDFQGFECIRTMHGHDHNVSSVAIMPNGDHIVSASRDKTIKMWEVQTGYCVKTFTGHREWVRMVRPNQDGTLIASCSNDQTVRVWVVATKECKAELREHEHVVECISWAPESSYSSISEATGSETKKSGKPGPFLLSGSRDKTIKMWDVSTGMCLMTLVGHDNWVRGVLFHSGGKFILSCADDKTLRVWDYKNKRCMKTLNAHEHFVTSLDFHKTAPYVVTGSVDQTVKVWECR
notes: LIS1, human, residues 81-410; source: Sf9, purified (IgG Sepharose, TEV, SEC); not shown: ZZ, N-terminal, cleaved; SNAPf, C-terminal, kept
B4: LIS1^mut (natural protein, human, UniProt P43034 1-410, looked up)
chain: MVASQEARDELNRAIADYLRSNGYEEAYSVFKKEAELDVNEELDKEYAGLLEEEWAAVAELAEEVMELRSKLNEAKEEFTSGGPLGQKRDPKEWIPRPPEKYALSGHRSPVTRVIFHPVFSVMVSASEDATIKVWDYETGDFERTLKGHTDSVQDISFDHSGKLLASCSADMTIKLWDFQGFECIRTMHGHDHNVSSVAIMPNGDHIVSASRDKTIKMWEVQTGYCVKTFTGHREWVRMVRPNQDGTLIASCSNDQTVRVWVVATKECKAELREHEHVVECISWAPESSYSSISEATGSETKKSGKPGPFLLSGSRDKTIKMWDVSTGMCLMTLVGHDNWVRGVLFHSGGKFILSCADDKTLRVWDYKNKRCMKTLNAHEHFVTSLDFHKTAPYVVTGSVDQTVKVWECR
notes: The last substitution is printed as E6 9R and read as E69R; source: Sf9, purified (IgG Sepharose, TEV, SEC); not shown: ZZ, N-terminal, cleaved
B5: human Arf6 (12-175_Q67L) (domain or fragment, UniProt P62330 12-175, looked up)
chain: KEMRILMLGLDAAGKTTILYKLKLGQSVTTIPTVGFNVETVTYKNVKFNVWDVGGLDKIRPLWRHYYTGTQGLIFVVDCADRDRIDEARQELHRIINDREMRDAIILIFANKQDLPDAMKPHEIQEKLGLTRIRDRNWYVQPSCATSGDGLYEGLTWLTSNYKS
notes: Arf6, human, residues 12-175 with Q67L; pGEX-6P-1 vector: N-terminal GST, Prescission site, C-terminal 6xHis; source: SoluBL21 E. coli, purified (Ni-NTA, glutathione resin, SEC)
B6: GST-Psc-DCTN1(residues 350-547)-GFP-6xHis (domain or fragment, human (from the printed UniProt entry), UniProt Q14203-1 350-547, looked up)
chain: GSDGAASSYQLKQLEEQNARLKDALVRMRDLSSSEKQEHVKLQKLMEKKNQELEVVRQQRERLQEELSQAESTIDELKEQVDAALGAEEMVEMLTDRNLNLEEKVRELRETVGDLEAMNEMNDELQENARETELELREQLDMAGARVREAQKRVEAAQETVADYQQTIKKYRQLTAHLQDVNRELTNQQEASVERQQQ
notes: DCTN1/p150glued, UniProt Q14203-1, residues 350-547 (CC1B fragment); also called CC1B; p150-CC1B; source: SoluBL21 E. coli, purified (Ni-NTA, glutathione resin, SEC)
B7: LIS1-N (residues 1-90) (domain or fragment, human, UniProt P43034 1-90, looked up)
chain: MVLSQRQRDELNRAIADYLRSNGYEEAYSVFKKEAELDVNEELDKKYAGLLEKKWTSVIRLQKKVMELESKLNEAKEEFTSGGPLGQKRD
notes: LIS1, human, residues 1-90 (LisH domain and coiled coil); source: Sf9, purified (IgG Sepharose, TEV, SEC); not shown: ZZ, N-terminal, cleaved

Legend:
[1] = biological target: T4, GST-Psc-DCTN1(residues 214-547)-GFP-6xHis (human (from the printed UniProt entry), UniProt Q14203-1 214-547); experiment: pull-down; GST pull-down on glutathione resin with GST-CC1A/B or CC1B as bait; LIS1, LIS1-N or MBP-DIC-N as prey; GST-PD buffer (50 mM HEPES pH 7.5, 100 mM KCl, 1 mM MgCl2, 1 mM DTT), room temperature; Coomassie-stained SDS-PAGE; conditions: both partners purified
T4 construct: DCTN1/p150glued, UniProt Q14203-1, residues 214-547 (CC1 fragment: CC1A and CC1B); also called GST-CC1A/B; CC1A/B; source: SoluBL21 E. coli, purified (Ni-NTA, glutathione resin, SEC); not shown: GST, N-terminal, kept

[2] = biological target: T5, dynactin pointed end complex (ZZ-TEV-Arp11, p62, p25, p27) (human, UniProt Q9NZ32 1-417; Q9UJW0-1 1-460; Q9BTE1 1-182; O00399 1-190); experiment: SEC; pointed end complex and JIP3^1-560 (or its Spindly mutant) mixed 1:1 at 10 μM final in GF150 buffer, 30 min at 4°C, Superose 6 Increase 3.2/300; conditions: both partners purified
T5 construct: Arp11, human, subunit of the dynactin pointed end complex; p62, human, isoform A, UniProt Q9UJW0-1; p25, human, subunit of the dynactin pointed end complex; p27, human, subunit of the dynactin pointed end complex; source: pAceBac1 vector; copies: + + +

[3] = biological target: the molecule itself; experiment: SEC-MALS; 70 μL at 1 mg/mL, GF150 buffer, Superdex 200 5/150
[4] = biological target: T1, mouse JIP3^185-505 (JIP3 residues …); experiment: pull-down; pull-downs with mouse JIP3 186-505 constructs, Arf6 and the recombinant pointed end complex (Fig. S3E); purified recombinant proteins; which protein was held on the resin is not told in the text shown; conditions: both partners purified
[5] = biological target: T2, mouse JIP3 186-505_L383A/E386A; experiment: as above; conditions: both partners purified
LIS1 (full length human) = biological target: T3, LIS1 (full length human); experiment: pull-down; GST pull-down on glutathione resin with GST-CC1A/B or CC1B as bait; LIS1, LIS1-N or MBP-DIC-N as prey; GST-PD buffer (50 mM HEPES pH 7.5, 100 mM KCl, 1 mM MgCl2, 1 mM DTT), room temperature; Coomassie-stained SDS-PAGE; conditions: both partners purified
[6] = biological target: B6; experiment: as above; conditions: both partners purified

T5 sequence (Q9NZ32 whole entry, chain 1 of 4, canonical isoform): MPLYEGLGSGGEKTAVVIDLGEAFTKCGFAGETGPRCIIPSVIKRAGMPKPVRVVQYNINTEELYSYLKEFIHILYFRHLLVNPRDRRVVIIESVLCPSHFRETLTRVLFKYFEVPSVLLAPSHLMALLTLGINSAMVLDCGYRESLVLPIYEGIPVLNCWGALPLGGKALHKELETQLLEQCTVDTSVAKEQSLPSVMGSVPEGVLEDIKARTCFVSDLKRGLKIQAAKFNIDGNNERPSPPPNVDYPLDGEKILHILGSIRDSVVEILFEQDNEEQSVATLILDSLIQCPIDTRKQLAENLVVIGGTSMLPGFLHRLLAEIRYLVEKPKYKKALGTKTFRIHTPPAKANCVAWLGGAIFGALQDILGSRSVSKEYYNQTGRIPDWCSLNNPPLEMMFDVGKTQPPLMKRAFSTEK
T5 sequence (Q9UJW0 whole entry, chain 2 of 4, canonical isoform): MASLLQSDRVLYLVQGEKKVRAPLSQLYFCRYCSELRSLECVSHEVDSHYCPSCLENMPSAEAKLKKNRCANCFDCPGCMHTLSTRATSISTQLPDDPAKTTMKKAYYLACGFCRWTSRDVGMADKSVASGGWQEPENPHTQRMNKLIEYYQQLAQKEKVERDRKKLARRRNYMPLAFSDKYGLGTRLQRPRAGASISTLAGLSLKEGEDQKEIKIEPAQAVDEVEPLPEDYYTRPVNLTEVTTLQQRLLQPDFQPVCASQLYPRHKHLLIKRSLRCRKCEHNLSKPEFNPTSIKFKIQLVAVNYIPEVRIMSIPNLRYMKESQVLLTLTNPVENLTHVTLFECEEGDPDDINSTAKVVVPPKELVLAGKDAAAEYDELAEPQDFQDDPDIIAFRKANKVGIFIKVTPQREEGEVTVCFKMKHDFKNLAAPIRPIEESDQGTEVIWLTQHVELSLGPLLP
T5 sequence (Q9BTE1 whole entry, chain 3 of 4, canonical isoform): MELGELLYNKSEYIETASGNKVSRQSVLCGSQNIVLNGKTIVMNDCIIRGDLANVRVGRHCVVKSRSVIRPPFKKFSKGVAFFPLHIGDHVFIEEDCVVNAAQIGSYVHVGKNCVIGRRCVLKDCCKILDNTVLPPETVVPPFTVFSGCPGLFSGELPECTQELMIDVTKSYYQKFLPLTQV
T5 sequence (O00399 whole entry, chain 4 of 4, canonical isoform): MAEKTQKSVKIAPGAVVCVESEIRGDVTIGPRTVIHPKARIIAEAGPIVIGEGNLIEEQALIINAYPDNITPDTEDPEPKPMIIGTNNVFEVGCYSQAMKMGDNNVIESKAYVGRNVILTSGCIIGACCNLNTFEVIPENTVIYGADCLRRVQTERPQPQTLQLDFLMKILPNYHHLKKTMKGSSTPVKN

Binder: B1
- binding result [1]: binds

Binder: B2
- binding result [2]: binds

Binder: B3
- stoichiometry N [3]: 2

Binder: B4
- stoichiometry N [3]: 2

Binder: B5
- binding result [4]: binds
- binding result [5]: binds

Binder: B6
- binding result (LIS1 (full length human)): binds

Binder: B7
- binding result [6]: binds
